These results are taken from patent EP4700040A1, “PEPTIDE AND LUMINESCENT COMPLEX CONTAINING SAME” (Shenzhen Loggene Life Science & Technology Co., Ltd., priority 2023, dated 2024).

Sequence of Large subunit-rSCFV5 fusion protein (chain, as listed by the source): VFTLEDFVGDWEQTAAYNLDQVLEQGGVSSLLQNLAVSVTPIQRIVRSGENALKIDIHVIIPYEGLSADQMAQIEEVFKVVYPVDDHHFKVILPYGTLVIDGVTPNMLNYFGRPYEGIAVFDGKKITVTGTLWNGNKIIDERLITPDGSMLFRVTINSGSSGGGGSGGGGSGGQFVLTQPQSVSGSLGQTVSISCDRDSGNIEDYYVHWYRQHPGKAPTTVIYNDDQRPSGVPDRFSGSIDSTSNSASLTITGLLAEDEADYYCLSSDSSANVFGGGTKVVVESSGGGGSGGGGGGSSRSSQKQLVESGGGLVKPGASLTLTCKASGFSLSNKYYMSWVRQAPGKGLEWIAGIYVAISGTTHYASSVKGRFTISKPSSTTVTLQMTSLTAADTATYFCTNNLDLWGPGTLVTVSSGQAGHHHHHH

The first experiment addresses Large subunit-rSCFV5 fusion protein. Kind of experiment: cell-based or functional assay.
Consider VEGYRLFDKKW (peptide, part only; not given: rSCFV18 scFv part, part only) [rSCFV18-small subunit mutant fusion protein RB239], for which the RLU, PCT+ amounted to 31900 RLU; the RLU, PCT- was determined as 465 RLU; the Signal-to-noise ratio stood at 67.7; the Signal-to-noise ratio at 1000 pg/ml was found to be 31.1. Besides, the luminescence at PCT 0 pg/ml is 288, the luminescence at PCT 1.37 pg/ml was determined as 301, the luminescence at PCT 4.12 pg/ml came to 332 and the luminescence at PCT 12.35 pg/ml is 407. Further, the luminescence at PCT 37.04 pg/ml was found to be 590, the luminescence at PCT 111.1 pg/ml was 1320, the luminescence at PCT 333.3 pg/ml was 3360 and the luminescence at PCT 1000 pg/ml is 8950.
On to VEGYRLFNRKW (peptide, part only; not given: rSCFV18 scFv part, part only) [rSCFV18-small subunit mutant fusion protein RB223], for which the RLU, PCT+ was 39200 RLU; the RLU, PCT- was 1100 RLU; the Signal-to-noise ratio amounted to 34.7.
With VNGWRIFDKKS (peptide, part only; not given: rSCFV18 scFv part, part only) [rSCFV18-small subunit mutant fusion protein RC-242], the RLU, PCT+ is 9040 RLU; the RLU, PCT- amounted to 1520 RLU; the Signal-to-noise ratio is 5.9.
VEGYRLFEKVW (peptide, part only; not given: rSCFV18 scFv part, part only) [rSCFV18-small subunit mutant fusion protein RB172]: the RLU, PCT+ was 41400 RLU; the RLU, PCT- was found to be 1090 RLU; the Signal-to-noise ratio worked out at 36.9.
Consider VEGYRLFNRVG (peptide, part only; not given: rSCFV18 scFv part, part only) [rSCFV18-small subunit mutant fusion protein RB122], for which the RLU, PCT+ was determined as 55400 RLU; the RLU, PCT- is 2600 RLU; the Signal-to-noise ratio came out at 20.2.
VSGYRIFEKKW (peptide, part only; not given: rSCFV18 scFv part, part only) [rSCFV18-small subunit mutant fusion protein RC-113]: the RLU, PCT+ amounted to 6210 RLU; the RLU, PCT- turned out to be 1180 RLU; the Signal-to-noise ratio is 5.3.
In the same order, the values of VSGWRIHEKIS (peptide, part only; not given: rSCFV18 scFv part, part only) [rSCFV18-small subunit mutant fusion protein RA120] are 81100 RLU, 2140 RLU and 36.9.
As to VEGYRLFERVL (peptide, part only; not given: rSCFV18 scFv part, part only) [rSCFV18-small subunit mutant fusion protein RB150], the RLU, PCT+ is 53900 RLU; the RLU, PCT- is 1630 RLU; the Signal-to-noise ratio is 32.1.
AEPYRIFDRKS (peptide, part only; not given: scFv part; template fusion not stated, part only) [small subunit mutant fusion protein RD-099]: the complementary activity, luminescence at 3 min worked out at 221 RLU and the complementary activity, luminescence at 6 min was found to be 52 RLU.
For IEGYRLFDRKS (peptide, part only; not given: scFv part; template fusion not stated, part only) [small subunit mutant fusion protein RD-092], the complementary activity, luminescence at 3 min stood at 4900 RLU and the complementary activity, luminescence at 6 min was found to be 4540 RLU.
As to VEGYRLFEKKL (peptide, part only; not given: rSCFV18 scFv part, part only) [rSCFV18-small subunit mutant fusion protein RB149], the RLU, PCT+ came to 79100 RLU; the RLU, PCT- worked out at 3590 RLU; the Signal-to-noise ratio was 21.
VEGWRLFDRKS (peptide, part only; not given: rSCFV18 scFv part, part only) [rSCFV18-small subunit mutant fusion protein RC-232]: the RLU, PCT+ was 18300 RLU; the RLU, PCT- is 3180 RLU; the Signal-to-noise ratio worked out at 5.8.
Turning to VDGWRLHEKIS (peptide, part only; not given: rSCFV18 scFv part, part only) [rSCFV18-small subunit mutant fusion protein RA141], the RLU, PCT+ came to 30600 RLU; the RLU, PCT- came to 463 RLU; the Signal-to-noise ratio was determined as 65.1.
In turn, AEGYRLFDRKS (peptide, part only; not given: scFv part; template fusion not stated, part only) [small subunit mutant fusion protein RD-086] showed a complementary activity, luminescence at 3 min of 3390 RLU and a complementary activity, luminescence at 6 min of 3220 RLU.
Turning to VEGWRLFDRVS (peptide, part only; not given: rSCFV18 scFv part, part only) [rSCFV18-small subunit mutant fusion protein RC-237], the RLU, PCT+ was 10800 RLU; the RLU, PCT- came to 2190 RLU; the Signal-to-noise ratio came to 5.
Regarding VSGYRLFDRKS (peptide, part only; not given: rSCFV18 scFv part, part only) [rSCFV18-small subunit mutant fusion protein RC-228], the RLU, PCT+ was determined as 16300 RLU; the RLU, PCT- was found to be 3000 RLU; the Signal-to-noise ratio turned out to be 5.4.
For VSGYRIFEKKS (peptide, part only; not given: rSCFV18 scFv part, part only) [rSCFV18-small subunit mutant fusion protein RC-129], the RLU, PCT+ amounted to 12000 RLU; the RLU, PCT- amounted to 2070 RLU; the Signal-to-noise ratio was 5.8.
On to VEGYRLFNKEW (peptide, part only; not given: rSCFV18 scFv part, part only) [rSCFV18-small subunit mutant fusion protein RB284], for which the RLU, PCT+ was determined as 3990 RLU; the RLU, PCT- came out at 302 RLU; the Signal-to-noise ratio is 12.2.
Turning to VSGYRLFDKKW (peptide, part only; not given: rSCFV18 scFv part, part only) [rSCFV18-small subunit mutant fusion protein RC-261], the RLU, PCT+ worked out at 7220 RLU; the RLU, PCT- came out at 1620 RLU; the Signal-to-noise ratio was determined as 4.5.
In the same order, the values of VSGWRIFDRKS (peptide, part only; not given: rSCFV18 scFv part, part only) [rSCFV18-small subunit mutant fusion protein RC-041] are 11800 RLU, 2500 RLU and 4.7.
Consider VEGYRLFNRVS (peptide, part only; not given: rSCFV18 scFv part, part only) [rSCFV18-small subunit mutant fusion protein RB027], for which the RLU, PCT+ amounted to 102000 RLU; the RLU, PCT- stood at 4320 RLU; the Signal-to-noise ratio was determined as 22.6.
For VDGYRLFEKVS (peptide, part only; not given: rSCFV18 scFv part, part only) [rSCFV18-small subunit mutant fusion protein RC-263], the RLU, PCT+ amounted to 4770 RLU; the RLU, PCT- is 685 RLU; the Signal-to-noise ratio turned out to be 7; the Signal-to-noise ratio at 1000 pg/ml was 5.8. The molecule further came in with a normalised luminescence at PCT 0.0 pg/ml of 5000, a normalised luminescence at PCT 1 pg/ml of 5130, a normalised luminescence at PCT 3 pg/ml of 5230 and a normalised luminescence at PCT 10 pg/ml of 5190. The molecule also gave a normalised luminescence at PCT 30 pg/ml of 5650, a normalised luminescence at PCT 100 pg/ml of 7130, a normalised luminescence at PCT 1000 pg/ml of 28800 and a normalised luminescence at PCT 10000 pg/ml of 241000. This molecule also returned a normalised luminescence at PCT 100000 pg/ml of 1.56e+06 and a normalised luminescence at PCT 250000 pg/ml of 2.23e+06.

Another experiment shares this target. Kind of experiment: cell-based or functional assay. This is another data set of the same source.
In the case of VEGYRLFDKKW (peptide, part only; not given: rSCFV18 scFv part, part only) [rSCFV18-small subunit mutant fusion protein RB239], the Signal-to-noise ratio at 1000 pg/ml came out at 11.5, the normalised luminescence at PCT 0 pg/ml was found to be 5000, the normalised luminescence at PCT 1.1 pg/ml worked out at 5530 and the normalised luminescence at PCT 3.3 pg/ml was determined as 5620. This molecule also yielded a normalised luminescence at PCT 10 pg/ml of 5990, a normalised luminescence at PCT 100 pg/ml of 11000, a normalised luminescence at PCT 1000 pg/ml of 57600 and a normalised luminescence at PCT 10000 pg/ml of 466000. The molecule also registered a normalised luminescence at PCT 100000 pg/ml of 2.17e+06.
VSGWRIHEKIS (peptide, part only; not given: rSCFV18 scFv part, part only) [rSCFV18-small subunit mutant fusion protein RA120]: the Signal-to-noise ratio at 1000 pg/ml was found to be 18, the normalised luminescence at PCT 0 pg/ml amounted to 5000, the normalised luminescence at PCT 1.1 pg/ml was found to be 4900 and the normalised luminescence at PCT 3.3 pg/ml stood at 5260. The molecule further returned a normalised luminescence at PCT 10 pg/ml of 5860, a normalised luminescence at PCT 100 pg/ml of 13400, a normalised luminescence at PCT 1000 pg/ml of 90100 and a normalised luminescence at PCT 10000 pg/ml of 695000. In addition, the normalised luminescence at PCT 100000 pg/ml was 2e+06.
For the molecule VDGWRLHEKIS (peptide, part only; not given: rSCFV18 scFv part, part only) [rSCFV18-small subunit mutant fusion protein RA141], the Signal-to-noise ratio at 1000 pg/ml was determined as 8.6, the normalised luminescence at PCT 0 pg/ml amounted to 5000, the normalised luminescence at PCT 1.1 pg/ml was found to be 4930 and the normalised luminescence at PCT 3.3 pg/ml is 5410. This molecule registered a normalised luminescence at PCT 10 pg/ml of 6020, a normalised luminescence at PCT 100 pg/ml of 8680, a normalised luminescence at PCT 1000 pg/ml of 42800 and a normalised luminescence at PCT 10000 pg/ml of 333000. For the same molecule, the normalised luminescence at PCT 100000 pg/ml is 1.4e+06.
Regarding VEGYRLFNKEW (peptide, part only; not given: rSCFV18 scFv part, part only) [rSCFV18-small subunit mutant fusion protein RB284], the Signal-to-noise ratio at 1000 pg/ml is 4.9, the normalised luminescence at PCT 0 pg/ml is 5000, the normalised luminescence at PCT 1.1 pg/ml stood at 5090 and the normalised luminescence at PCT 3.3 pg/ml was found to be 5290. This molecule also displayed a normalised luminescence at PCT 10 pg/ml of 5530, a normalised luminescence at PCT 100 pg/ml of 7040, a normalised luminescence at PCT 1000 pg/ml of 24700 and a normalised luminescence at PCT 10000 pg/ml of 188000. The normalised luminescence at PCT 100000 pg/ml was 862000.
